Measurements: the supplement of paper PMC7877785
± gives the uncertainty stated by the source.

Assay: self-splicing fitness, log relative to wild type (ln ratio); higher = more splicing; Tetrahymena group I intron in knt gene, E. coli kanamycin selection, DiMSum; sequences stand for … in CUCUCU…GGAGGGAAAAGUUAUCAGGCAUGCACCUGGUAGCUAGUCUUUAAACCAAUAGAUUGCAUCGGUUUAAAAGGCAAGACCGUCAAAUUGCGGGAAAGGGGUCAACAGCCGUUCAGUACCAAGUCUCAGGGGAAACUUUGAGAUGGCCUUGCAAAGGGUAUGGUAAUAAGCUGACGGACAUGGUCCUAACCACGCAGCCAAGUCCUAAGUCAACAGAUCUUCUGUUGAUAUGGAUGCAGUUCACAGACUAAAUGUCGGUCGGGGAAGAUGUAUUCUUCUCAUAAGAUAUAGUCGGACCUCUCCUUAAUGGGAGCUAGCGGAUGAAGUGAUGCAACACUGGAGCCGCUGGGAACUAAUUUGUAUGCGAAAGUAUAUUGAUUAGUUUUGGAGUACUCGUGGUCG
Procedure, shortened: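 Fitness was computed with DiMSum as the error-weighted combination of replicate fold changes, kanamycin versus none, each normalised to wild type. The library randomised all eight intron nucleotides of the P1ex region, with the intron placed in the knt kanamycin-resistance gene on pET-22b(+) in E. coli BL21(DE3). Six replicate transformations were grown overnight at 37°C or 30°C on LB agar with or without 25 μg/mL kanamycin, plus 100 μg/mL carbenicillin, 50 μM IPTG and 0.2% rhamnose. Pooled colonies were amplicon-sequenced on an Illumina HiSeq 2500.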

| Sequence | self-splicing fitness (ln) (30 °C) | self-splicing fitness (ln) (37 °C) |
| --- | --- | --- |
| UUUUAGCAAUAUUACGACAA | -0.409 ± 0.15 | -0.125 ± 0.17 |
| CAAUAGCAAUAUUACGUAUA | -3.6 ± 0.22 | -2.58 ± 0.19 |
| AACCAGCAAUAUUACGUAGA | -1.75 ± 0.044 | -0.514 ± 0.058 |
| CCUAAGCAAUAUUACGACCU | -3.17 ± 0.35 | -2.34 ± 0.31 |
| GGAGAGCAAUAUUACGAAGA | -3.05 ± 0.44 | -1.59 ± 0.39 |
| UUCUAGCAAUAUUACGAAUA | -2.64 ± 0.3 | -0.478 ± 0.17 |
| GAUUAGCAAUAUUACGAUCG | -1.06 ± 0.11 | -0.387 ± 0.12 |
| CAAUAGCAAUAUUACGCUAA | -3.58 ± 0.43 | -2.05 ± 0.2 |
| CAAGAGCAAUAUUACGCAUA | -2.71 ± 0.31 | -2.3 ± 0.37 |
| CCACAGCAAUAUUACGUCGG | -3.14 ± 0.12 | -1.95 ± 0.18 |
| CAUGAGCAAUAUUACGGAUA | -3.32 ± 0.22 | -1.68 ± 0.24 |
| UUCCAGCAAUAUUACGAUGG | -2.91 ± 0.24 | – |
| CGCAAGCAAUAUUACGGACC | -1.72 ± 0.1 | -0.3 ± 0.14 |
| AGCAAGCAAUAUUACGAACA | -0.765 ± 0.099 | -0.407 ± 0.12 |
| AACAAGCAAUAUUACGGGAU | -2.27 ± 0.098 | -1.01 ± 0.1 |
| UGGUAGCAAUAUUACGUGAA | -1.96 ± 0.14 | -1.57 ± 0.15 |
| ACUUAGCAAUAUUACGUGUG | -2.2 ± 0.09 | -1.06 ± 0.087 |
| UCCGAGCAAUAUUACGCACA | -3.21 ± 0.22 | -0.221 ± 0.13 |
| GCAAAGCAAUAUUACGGGGG | -3.28 ± 0.2 | -1.87 ± 0.18 |
| GCCAAGCAAUAUUACGUACG | -1.79 ± 0.078 | -1.56 ± 0.11 |
| UAUGAGCAAUAUUACGGAGG | -3.2 ± 0.17 | -2.53 ± 0.29 |
| CUCUAGCAAUAUUACGAUCU | – | -1.9 ± 0.3 |
| AGACAGCAAUAUUACGAUCC | -0.233 ± 0.083 | -0.102 ± 0.11 |
| GUUUAGCAAUAUUACGACAC | -0.84 ± 0.091 | 0.0746 ± 0.14 |
| GAGGAGCAAUAUUACGAACA | -2.69 ± 0.23 | -2.07 ± 0.16 |
| GAAAAGCAAUAUUACGCUGC | -3.12 ± 0.24 | -1.61 ± 0.39 |

| Sequence | self-splicing fitness (ln) (30 °C) | self-splicing fitness (ln) (37 °C) |
| --- | --- | --- |
| UCGUAGCAAUAUUACGCGCG | -1.62 ± 0.12 | -1.34 ± 0.15 |
| AGUAAGCAAUAUUACGUGUC | -3.49 ± 0.21 | -2.24 ± 0.2 |
| UGACAGCAAUAUUACGUCGU | -1.56 ± 0.15 | -3.25 ± 0.24 |
| UCAAAGCAAUAUUACGCGGA | -2.87 ± 0.13 | -1.37 ± 0.11 |
| UACGAGCAAUAUUACGUCAC | -2.59 ± 0.25 | -2.09 ± 0.32 |
| CUUGAGCAAUAUUACGCGAU | – | 1.12 ± 0.27 |
| GCCAAGCAAUAUUACGUCGA | -2.34 ± 0.16 | -1.29 ± 0.14 |
| CCCAAGCAAUAUUACGAAAA | -2.96 ± 0.21 | -2.1 ± 0.22 |
| UCUUAGCAAUAUUACGUUGA | -2.76 ± 0.22 | -1.94 ± 0.18 |
| AGUAAGCAAUAUUACGAUCU | 0.14 ± 0.15 | -0.333 ± 0.14 |
| CAUCAGCAAUAUUACGAGGG | -2.04 ± 0.13 | -0.928 ± 0.12 |
| CCUGAGCAAUAUUACGGGAA | -2.46 ± 0.27 | -0.571 ± 0.29 |
| CGGCAGCAAUAUUACGAAUG | 0.0635 ± 0.086 | -0.00804 ± 0.099 |
| CUCCAGCAAUAUUACGUAUU | -4.45 ± 0.15 | -3.21 ± 0.18 |
| GGCUAGCAAUAUUACGCCCU | – | 0.0828 ± 0.36 |
| CUAAAGCAAUAUUACGAGUC | -4.51 ± 0.3 | -2.96 ± 0.31 |
| GUAAAGCAAUAUUACGCAAC | – | -0.263 ± 0.42 |
| AAUGAGCAAUAUUACGUCAG | -1.81 ± 0.45 | -2.32 ± 0.42 |
| GGGCAGCAAUAUUACGCUUA | 0.359 ± 0.12 | 0.25 ± 0.15 |
| UUCGAGCAAUAUUACGUGGA | -2.74 ± 0.22 | -2.58 ± 0.2 |
| CAGGAGCAAUAUUACGCCGG | – | -2.22 ± 0.24 |
| CGGGAGCAAUAUUACGCAUA | -2.61 ± 0.37 | -1.96 ± 0.35 |
| AAACAGCAAUAUUACGCCCA | -1.29 ± 0.15 | -0.816 ± 0.15 |
| CCAUAGCAAUAUUACGCCAA | -2.76 ± 0.43 | -1.58 ± 0.25 |
| CAUGAGCAAUAUUACGUUUG | -3.57 ± 0.16 | -2.89 ± 0.2 |
| AUGCAGCAAUAUUACGAGGA | -3.57 ± 0.28 | -2.9 ± 0.21 |

| Sequence | self-splicing fitness (ln) (30 °C) | self-splicing fitness (ln) (37 °C) |
| --- | --- | --- |
| AAUAAGCAAUAUUACGUCGA | -1.38 ± 0.099 | -0.488 ± 0.12 |
| GCCGAGCAAUAUUACGGCGG | -2.62 ± 0.21 | -1.91 ± 0.3 |
| CGGGAGCAAUAUUACGAAUA | -2.55 ± 0.36 | -2.52 ± 0.39 |
| CGCGAGCAAUAUUACGGCUG | -0.795 ± 0.094 | -0.637 ± 0.13 |
| CACAAGCAAUAUUACGGCGC | -3.59 ± 0.17 | -1.07 ± 0.12 |
| UCCGAGCAAUAUUACGAGAA | -1.91 ± 0.35 | -2.27 ± 0.38 |
| UCCCAGCAAUAUUACGAAUA | -2.11 ± 0.1 | -1.42 ± 0.11 |
| UGGCAGCAAUAUUACGGGAC | -2.88 ± 0.45 | -2.37 ± 0.49 |
| ACUCAGCAAUAUUACGCGAG | -2.93 ± 0.2 | -1.21 ± 0.17 |
| AGCAAGCAAUAUUACGACGA | -0.884 ± 0.14 | -0.398 ± 0.16 |
| CUAAAGCAAUAUUACGACGG | -0.113 ± 0.051 | 0.466 ± 0.082 |
| CCUCAGCAAUAUUACGAUCU | -3.75 ± 0.27 | -2.79 ± 0.23 |
| UACGAGCAAUAUUACGAAAU | – | -1.69 ± 0.25 |
| GUUUAGCAAUAUUACGUAGC | -1.61 ± 0.2 | -0.831 ± 0.17 |
| AGCCAGCAAUAUUACGUUAG | -3.07 ± 0.14 | -2.28 ± 0.16 |
| GUGGAGCAAUAUUACGCUUU | -3.84 ± 0.32 | -2.41 ± 0.27 |
| GGUCAGCAAUAUUACGCGAU | -2.41 ± 0.18 | – |
| GGCGAGCAAUAUUACGAAGG | -3.8 ± 0.27 | -2.88 ± 0.4 |
| UCUCAGCAAUAUUACGUCUC | -4.6 ± 0.31 | -3 ± 0.23 |
| GAGGAGCAAUAUUACGGGGU | -4.47 ± 0.34 | -2.64 ± 0.22 |
| CCUUAGCAAUAUUACGCGAA | -4.02 ± 0.26 | -2.62 ± 0.29 |
| UUAGAGCAAUAUUACGGGAC | -3.75 ± 0.36 | -2.8 ± 0.22 |
| ACGCAGCAAUAUUACGUCAU | -3.44 ± 0.12 | -1.52 ± 0.11 |
| CGGUAGCAAUAUUACGCGGC | -3.99 ± 0.24 | -2.79 ± 0.25 |
| UUGAAGCAAUAUUACGUUGA | -0.405 ± 0.093 | -0.404 ± 0.11 |
